Data from EP4647081A1.

Molecular target: cell surface IgG (sIgG) of the sIgG+ B cell line SU-DHL-4
Assay: cell-based or functional assay

Substance | lowest concentration with significant toxicity on SU-DHL-4 (cell viability) | percent of SU-DHL-4 cells killed above 0.001 µg/ml | concentration showing weak cytotoxicity on SU-DHL-4 (cell viability)
SpA toxin | 0.0001 µg/mL | 99% | 
SpG toxin (from UniProt P00587 26-411) |  |  | 1 µg/mL
